For 1 substance, stoichiometry N results are on record in publication PMC8386734.

The target of test [1] is DS-Cav1, prefusion-stabilized form of the RSV fusion (F) glycoprotein (human respiratory syncytial virus | not stated). The test can be described thus: cryo-EM structure.
Test [2] has the same target. Description: crystal structure.

In the case of “DS-Cav1, prefusion-stabilized form of the RSV fusion (F) glycoprotein (natural protein)”, the stoichiometry N in test [1] and in test [2] was 3 throughout.

Broadly, the stoichiometry N is the number of molecules, sites or subunits per partner or assembly.
